From the nanobody polyreactivity screen of Harvey et al. (2022)

assay: yeast display, Sf9 membrane polyspecificity reagent, FACS + sequencing; frameworks hold sequencing errors
Outline: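 In a synthetic yeast display library (Saccharomyces cerevisiae BJ5465), nanobody expression was induced with galactose for 36–48 hours. FACS gates were set low and high (top ~1%) using anti-HA fluorescence for expression and streptavidin fluorescence for binding of the Sf9 membrane reagent. Each polyreactivity label is drawn from the gate of origin.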

Sequence | polyreactivity (PSR sort gate)
QVQLVESGGGLVQAGGSLRLSCAASGSTIPPYVMGWYRQAPGKERELVAAISSSTSSTYYADSVKGRFTISRDNAKNTVYLQMNSLKPEDTAVYYCADEYYTYEYIYDYWGQGTQVTVSS | high polyreactivity
QVQLVESGGGLVQAGGSLRLSCAASGSTIPWYAMGWYRQAPGKEREFVAAISWSSGRTYYADSVKGRFTISRDNAKNTVYLQMNSLKPEDTAVYYCAARQWAYYRDVEMGYWGQGTQVTVSS | high polyreactivity
QVQLVESGGGLVQAGGSLRLSCAASGSTIRRNAKGWYRQAPGKERELVAAITRRAVSTYYADSVKGRFTISRDNAKNTVYLQMNSLKPEDTAVYYCAADRASYFTYAYGYWGQGTQVTVSS | high polyreactivity
QVQLVESGGGLVQAGGSLRLSCAASGSTIRSNAMGWYRQAPGKERELVAAISRTGGRTYYADSVKGRFTISRDNAKNTVYLQMNSLKPEDTAVYYCARPDKRLEYSENYYWGQGTQVTVSS | high polyreactivity
QVQLVESGGGLVQAGGSLRLSCAASGSTIRYYAMGWYRQAPGKERELLAAITKSGGSTYYADSVKGRFTISRDNAKNTVYLQMNSLKPEDTAVYFCAAVRRWYYPALSEHDYCGQGTQVTVSS | low polyreactivity
QVQLVESGGGLVQAGGSLRLSCAASGSTIRYYAMGWYRQAPGKERELVAANTKSGGSTYYADSVKGRFTISRDNAKNTVYLQMNSPKPEDTAVYSCAAVRRWYYPALSEHDYWGQGTQVTVSS | low polyreactivity
QVQLVESGGGLVQAGGSLRLSCAASGSTISGYAKGWYRQAPGKERELVATISRGGSTNYADSVKGRFTISRDNAKNTVYLQMNSLKPEDTEVYYCAAVVSDYVWRYEYWGQGTQVTVSS | low polyreactivity
QVQLVESGGGLVQAGGSLRLSCAASGSTISKYAMGWYRQAPGKERYLVAAISSRGGSTYYADSVKGRFTISRDNAKNTVYLQMNSLTPEDTAVYYCNATPYPGGNGRWRFWKSYRYWGQGTQVTVSS | high polyreactivity
QVQLVESGGGLVQAGGSLRLSCAASGSTISRYTMGWYPQAPGKERELVAAIRRSGSSTYYADSVKGRYTISRDNAKYTVYLQMNSLKREDTAVYYCAVGRYRYGYWGQGTQVTVSS | high polyreactivity
QVQLVESGGGLVQAGGSLRLSCAASGSTITNYAMGWYRQAPGKERELVAAIRYSGGRTYYADSVKGRFTISRDNANNPGYLQMNSLKPEDTAVYYCAADRASYFTYAYGYWGQGTQVTVSS | high polyreactivity
QVQLVESGGGLVQAGGSLRLSCAASGSTITSNAMGWYRQAPGKERELVAAINTSGGSTYYADSVKGRFTISRDNAKNTVYLQMNSLKPEDTAVYYCNADYGGDEYRGLEFDYWGQGTQVTVSS | low polyreactivity
QVQLVESGGGLVQAGGSLRLSCAASGSTIVRYAMGWYRQAPGKERELVAAISSRGGSTYYADSVKGRFTNSRDNAKNTVYLQMNSLKAEDTGVYYCAAAQRCTNAYRVGSWGLGTQVTVSS | high polyreactivity
QVQLVESGGGLVQAGGSLRLSCAASGSTIVYYAMGWYIQAPGKERELVAAITSGGSTYDADSVKGRCTISRDNAKNTVYLQMNSQKPEDTAVYYCHADWWRGDEAYRMYYWGQGTQVTVSS | low polyreactivity
QVQLVESGGGLVQAGGSLRLSCAASGSTIYAMGWYRQAPGKERELVAGINRSGTRTYYADSVKGRFTISRDNAKNTVYLQMNSLKPEDTAVYYCAALVYRPTYGYIFDYWGQGTQVTVSS | high polyreactivity
QVQLVESGGGLVQAGGSLRLSCAASGSTIYENAMGWYRQAPGKERELVAGISRGGGSTYYADSVKGRFTISRDNAKNTVYLQMNSLKPEDTAVYYCAAGSRVQGGYWGQGTQVTVSS | low polyreactivity
QVQLVESGGGLVQAGGSLRLSCAASGSTIYFNGMGWYRQAPGKERELVAAITSGGSTDYADSVKGRFTISRDNAKNTVYLQMNSLKPEDTAVYYCAADHYGRYDYWGQGTQVTVSS | low polyreactivity
QVQLVESGGGLVQAGGSLRLSCAASGSTIYFYAMGWYRQAPGKERELVAAITWSGGRTYYADSVKGRFTISRDNAKNTVYLQMNSLKPEDTAVYYCAAVRPPLARLYVAAKRFDSWGQGTQVTVSS | low polyreactivity
